Assay results: publication PMC10397247

How the values were obtained:
Experiment in all cases: two-hybrid library CCmax;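 also: natural log of median RNA to DNA barcode read ratio; higher means stronger binding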
[1] = molecular target: T1, 4H2948-AA
T1 chain: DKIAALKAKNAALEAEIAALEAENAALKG

[2] = molecular target: T2, 4H2991-AA; conditions: mean of both orientations
T2 chain: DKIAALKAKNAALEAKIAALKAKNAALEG

[3] = molecular target: T3, 4H3029-AA; conditions: mean of both orientations
T3 chain: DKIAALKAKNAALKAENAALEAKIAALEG

[4] = molecular target: T4, 4H3066-AA; conditions: mean of both orientations
T4 chain: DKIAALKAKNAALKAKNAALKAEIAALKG

[5] = molecular target: T5, 4H3102-AA; conditions: mean of both orientations
T5 chain: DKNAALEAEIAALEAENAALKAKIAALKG

[6] = molecular target: T6, 4H3121-AA; conditions: mean of both orientations
T6 chain: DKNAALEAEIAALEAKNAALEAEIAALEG

[7] = molecular target: T7, 4H3417-AA; conditions: mean of both orientations
T7 chain: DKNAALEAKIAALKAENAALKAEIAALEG

[8] = molecular target: T8, 4H3446-AA; conditions: mean of both orientations
T8 chain: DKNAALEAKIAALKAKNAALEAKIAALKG

[9] = molecular target: T9, 4H3591-AA; conditions: mean of both orientations
T9 chain: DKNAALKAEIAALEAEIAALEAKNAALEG

[10] = molecular target: T10, 4H3628-AA; conditions: mean of both orientations
T10 chain: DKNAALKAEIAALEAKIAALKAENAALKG

[11] = molecular target: T11, 4H3666-AA; conditions: mean of both orientations
T11 chain: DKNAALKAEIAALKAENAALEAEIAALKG

[12] = molecular target: T12, 4H3709-AA; conditions: mean of both orientations
T12 chain: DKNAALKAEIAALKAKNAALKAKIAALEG

[13] = molecular target: T13, 4H391-AA
T13 chain: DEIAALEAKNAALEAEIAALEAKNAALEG

[14] = molecular target: T14, 4H3920-AA; conditions: mean of both orientations
T14 chain: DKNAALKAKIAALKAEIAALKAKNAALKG

[15] = molecular target: T15, 4H3939-AA; conditions: mean of both orientations
T15 chain: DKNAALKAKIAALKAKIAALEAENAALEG

[16] = molecular target: T16, 4H428-AA; conditions: mean of both orientations
T16 chain: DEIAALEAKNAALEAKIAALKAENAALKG

[17] = molecular target: T17, 4H478-AA; conditions: mean of both orientations
T17 chain: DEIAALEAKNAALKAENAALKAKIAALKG

[18] = molecular target: T18, 4H497-AA; conditions: mean of both orientations
T18 chain: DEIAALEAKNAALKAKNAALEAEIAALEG

[19] = molecular target: T19, 4H656-AA; conditions: mean of both orientations
T19 chain: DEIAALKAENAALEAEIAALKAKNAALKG

[20] = molecular target: T20, 4H675-AA; conditions: mean of both orientations
T20 chain: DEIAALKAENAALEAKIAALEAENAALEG

[21] = molecular target: T21, 4H971-AA; conditions: mean of both orientations
T21 chain: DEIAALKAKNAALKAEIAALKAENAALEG

interaction score [1]: -0.0114
interaction score [2]: -0.169
interaction score [3]: -1.4
interaction score [4]: -1.57
interaction score [5]: 0.56
interaction score [6]: -1.15
interaction score [7]: 0.478
interaction score [8]: -0.524
interaction score [9]: -1.3
interaction score [10]: -0.855
interaction score [11]: -1.69
interaction score [12]: -1.17
interaction score [13]: -1.39
interaction score [14]: -1.35
interaction score [15]: -1.77
interaction score [16]: 1.95
interaction score [17]: -1.62
interaction score [18]: -1.54
interaction score [19]: 0.924
interaction score [20]: -0.414
interaction score [21]: -0.608
Binder: DKIAALKAKNAALEAEIAALEAENAALKG [4H2948-AA]
